± gives the standard deviation of the averaged measurements.
How the values were obtained:
Saccharomyces cerevisiae [1] = experiment: protein stability index of tFT-peptide fusion (C-terminal peptide) (PSI (0-1 scale)); higher = more stable (slower turnover); conditions: genetic background: wild type; temperature: 30 C
Saccharomyces cerevisiae [2] = experiment: as above
Method: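 MPS profiling in S. cerevisiae of the tFT-X12 degron library: putative degron peptides plus stable controls, 12 aa, fused to the C-terminus of a sfGFP-mCherry timer. Cells are FACS-sorted into 8 mCherry/sfGFP bins and deep-sequenced. PSI runs from 0 (unstable) to 1 (stable). Backgrounds are wild type, das1Δ and doa10Δ at 30 °C, and wild type, das1Δ, cdc34-1 and cdc53-1 at 37 °C; 2-3 technical replicates each.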

[3] = genetic background: cdc34-1, temperature: 37 C
[4] = genetic background: cdc53-1, temperature: 37 C
[5] = genetic background: das1 deletion, temperature: 30 C
[6] = genetic background: das1 deletion, temperature: 37 C
[7] = genetic background: doa10 deletion, temperature: 30 C
[8] = genetic background: wild type, temperature: 30 C
[9] = genetic background: wild type, temperature: 37 C
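Further: PSI is a weighted mean of sequencing reads over stability bins, variants kept only with over 10 reads, mCherry proximal and sfGFP distal, peptide attached via GGGS linker.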

Sequence | protein stability index (Saccharomyces cerevisiae [1]) | protein stability index (Saccharomyces cerevisiae [2]; [3]) | protein stability index (Saccharomyces cerevisiae [2]; [4]) | protein stability index (Saccharomyces cerevisiae [2]; [5]) | protein stability index (Saccharomyces cerevisiae [2]; [6]) | protein stability index (Saccharomyces cerevisiae [2]; [7]) | protein stability index (Saccharomyces cerevisiae [2]; [8]) | protein stability index (Saccharomyces cerevisiae [2]; [9])
SVLLVFRFFWEL | 0.405 ± 0.098 | 0.417 ± 0.012 | 0.461 ± 0.018 | 0.397 ± 0.026 | 0.5056 ± 0.0022 | 0.295 ± 0.018 | 0.292 ± 0.029 | 0.445 ± 0.0082
RPSHTSVYRLLH | 0.2545 ± 0.0022 | 0.553 ± 0.061 | 0.677 ± 0.054 | 0.655 ± 0.045 | 0.706 ± 0.019 | 0.114 ± 0.019 | 0.148 ± 0.0086 | 0.337 ± 0.17
SFFFSFFPYFFC | 0.4425 ± 0.0029 | 0.6386 ± 0.0014 | 0.675 ± 0.02 | 0.606 ± 0.06 | 0.732 ± 0.023 | 0.401 ± 0.012 | 0.394 ± 0.017 | 0.561 ± 0.015
LVFGFSLILRVG | 0.2132 ± 0.00073 | 0.168 ± 0.025 | 0.203 ± 0.0096 | 0.272 ± 0.054 | 0.356 ± 0.016 | 0.139 ± 0.016 | 0.128 ± 0.0069 | 0.234 ± 0.018
VGYHCIVGVIFL | 0.524 ± 0.081 | 0.467 ± 0.031 | 0.491 ± 0.041 | 0.359 ± 0.036 | 0.545 ± 0.0059 | 0.326 ± 0.012 | 0.372 ± 0.013 | 0.512 ± 0.015
SFWLFSSIGVCF | 0.512 ± 0.019 | 0.594 ± 0.035 | 0.5958 ± 0.004 | 0.461 ± 0.031 | 0.578 ± 0.017 | 0.4316 ± 0.00081 | 0.465 ± 0.011 | 0.5772 ± 0.0052
PATPPLRFPPSA | 0.409 ± 0.0081 | 0.702 ± 0.032 | 0.7349 ± 0.0039 | 0.648 ± 0.01 | 0.7356 ± 0.0028 | 0.67 ± 0.033 | 0.668 ± 0.012 | 0.7075 ± 0.0036
HVSVIRRGICCA | 0.374 ± 0.034 | 0.266 ± 0.014 | 0.2978 ± 0.0018 | 0.271 ± 0.026 | 0.398 ± 0.0092 | 0.233 ± 0.0093 | 0.278 ± 0.015 | 0.3675 ± 0.0027
IFFYPFLIFCFV | 0.325 ± 0.018 | 0.251 ± 0.022 | 0.281 ± 0.026 | 0.267 ± 0.027 | 0.396 ± 0.019 | 0.2722 ± 0.00072 | 0.238 ± 0.032 | 0.332 ± 0.012
PPSRVSIRLLIR | 0.4017 ± 0.0039 | 0.446 ± 0.025 | 0.473 ± 0.0095 | 0.362 ± 0.021 | 0.461 ± 0.0062 | 0.374 ± 0.0089 | 0.371 ± 0.0086 | 0.448 ± 0.013
LCGYVGVVVCLV | 0.307 ± 0.019 | 0.282 ± 0.012 | 0.307 ± 0.027 | 0.243 ± 0.029 | 0.433 ± 0.0061 | 0.175 ± 0.0034 | 0.209 ± 0.021 | 0.352 ± 0.015
FGRAVWSRFCIV | 0.172 ± 0.064 | 0.604 ± 0.044 | 0.735 ± 0.029 | 0.601 ± 0.0099 | 0.736 ± 0.0076 | 0.13 ± 0.015 | 0.128 ± 0.03 | 0.177 ± 0.032
RSITFFPVCLVK | 0.382 ± 0.016 | 0.316 ± 0.079 | 0.389 ± 0.06 | 0.293 ± 0.029 | 0.491 ± 0.014 | 0.253 ± 0.021 | 0.289 ± 0.018 | 0.426 ± 0.013
FRCFVLPYFGRF | 0.435 ± 0.036 | 0.608 ± 0.032 | 0.699 ± 0.021 | 0.647 ± 0.0081 | 0.7 ± 0.0079 | 0.372 ± 0.037 | 0.37 ± 0.015 | 0.5489 ± 0.0039
WHVSLRFAFYVF | 0.22 ± 0.12 | 0.2459 ± 0.0022 | 0.326 ± 0.02 | 0.235 ± 0.019 | 0.342 ± 0.011 | 0.136 ± 0.0056 | 0.158 ± 0.018 | 0.263 ± 0.0032
FRVFYSFLLCLS | 0.22 ± 0.0028 | 0.194 ± 0.0057 | 0.189 ± 0.01 | 0.228 ± 0.015 | 0.307 ± 0.0087 | 0.178 ± 0.0048 | 0.162 ± 0.0088 | 0.219 ± 0.0085
RCSLRLRFIFVR | 0.166 ± 0.0029 | 0.0761 ± 0.024 | 0.0507 ± 0.018 | 0.128 ± 0.019 | 0.159 ± 0.0038 | 0.254 ± 0.024 | 0.104 ± 0.022 | 0.116 ± 0.0027
YLFPHVRPKFPG | 0.488 ± 0.091 | 0.693 ± 0.042 | 0.747 ± 0.014 | 0.658 ± 0.019 | 0.7316 ± 0.0071 | 0.667 ± 0.0085 | 0.664 ± 0.016 | 0.721 ± 0.015
HCNRLIFWYKCT | 0.288 ± 0.0074 | 0.508 ± 0.082 | 0.745 ± 0.025 | 0.656 ± 0.052 | 0.723 ± 0.035 | 0.189 ± 0.0086 | 0.224 ± 0.032 | 0.298 ± 0.0068
YMNLYKNVISVT | 0.408 ± 0.057 | 0.473 ± 0.044 | 0.47 ± 0.054 | 0.378 ± 0.024 | 0.522 ± 0.0072 | 0.316 ± 0.021 | 0.353 ± 0.024 | 0.457 ± 0.0095

Sequence | protein stability index (Saccharomyces cerevisiae [1]) | protein stability index (Saccharomyces cerevisiae [2]; [3]) | protein stability index (Saccharomyces cerevisiae [2]; [4]) | protein stability index (Saccharomyces cerevisiae [2]; [5]) | protein stability index (Saccharomyces cerevisiae [2]; [6]) | protein stability index (Saccharomyces cerevisiae [2]; [7]) | protein stability index (Saccharomyces cerevisiae [2]; [8]) | protein stability index (Saccharomyces cerevisiae [2]; [9])
GGVFYVFFVFVG | 0.195 ± 0.0076 | 0.19 ± 0.016 | 0.39 ± 0.016 | 0.246 ± 0.024 | 0.425 ± 0.013 | 0.128 ± 0.0049 | 0.153 ± 0.023 | 0.258 ± 0.013
FCFCLVLRVFLG | 0.253 ± 0.034 | 0.118 ± 0.0026 | 0.171 ± 0.011 | 0.154 ± 0.03 | 0.272 ± 0.0093 | 0.172 ± 0.011 | 0.162 ± 0.024 | 0.222 ± 0.014
TLCFRLSWVLLV | 0.0528 ± 0.037 | 0.0812 ± 0.028 | 0.15 ± 0.013 | 0.144 ± 0.02 | 0.22 ± 0.014 | 0.0335 ± 0.006 | 0.0265 ± 0.0028 | 0.0672 ± 0.022
YIFLLRFFFFFS | 0.358 ± 0.028 | 0.367 ± 0.014 | 0.435 ± 0.0084 | 0.333 ± 0.042 | 0.515 ± 0.03 | 0.299 ± 0.011 | 0.304 ± 0.044 | 0.435 ± 0.022
SPCFLDPPRLIS | 0.388 ± 0.025 | 0.663 ± 0.031 | 0.728 ± 0.025 | 0.681 ± 0.022 | 0.7568 ± 0.0044 | 0.287 ± 0.018 | 0.328 ± 0.032 | 0.536 ± 0.02
LIAPSACNLFLF | 0.412 ± 0.032 | 0.639 ± 0.04 | 0.7535 ± 0.0061 | 0.682 ± 0.015 | 0.7584 ± 0.0066 | 0.288 ± 0.0042 | 0.308 ± 0.018 | 0.5569 ± 0.005
VVGLVSIVQVIM | 0.397 ± 0.041 | 0.43875 ± 0.0003 | 0.488 ± 0.024 | 0.308 ± 0.023 | 0.51 ± 0.027 | 0.279 ± 0.011 | 0.31 ± 0.024 | 0.493 ± 0.014
FFAIFSLLLSFT | 0.459 ± 0.026 | 0.449 ± 0.015 | 0.482 ± 0.0083 | 0.401 ± 0.028 | 0.532 ± 0.012 | 0.399 ± 0.007 | 0.4 ± 0.014 | 0.527 ± 0.0072
LLILSLLVLSSR | 0.326 ± 0.0076 | 0.244 ± 0.022 | 0.348 ± 0.024 | 0.241 ± 0.021 | 0.42 ± 0.0046 | 0.2034 ± 0.00063 | 0.229 ± 0.036 | 0.37 ± 0.011
FCASCLVCFIYL | 0.462 ± 0.023 | 0.492 ± 0.0074 | 0.501 ± 0.0053 | 0.426 ± 0.024 | 0.5207 ± 0.0051 | 0.444 ± 0.026 | 0.421 ± 0.031 | 0.517 ± 0.019
LFTRSIRNLKSL | 0.452 ± 0.033 | 0.653 ± 0.057 | 0.7269 ± 0.007 | 0.664 ± 0.0086 | 0.738 ± 0.02 | 0.303 ± 0.0033 | 0.291 ± 0.0074 | 0.4521 ± 0.0027
VLAFFPLFFFLS | 0.2054 ± 0.002 | 0.434 ± 0.035 | 0.5049 ± 0.0042 | 0.439 ± 0.033 | 0.5732 ± 0.0029 | 0.144 ± 0.013 | 0.126 ± 0.015 | 0.245 ± 0.0039
GTLVFTYLVLRC | 0.314 ± 0.008 | 0.0997 ± 0.012 | 0.0693 ± 0.0078 | 0.197 ± 0.02 | 0.252 ± 0.032 | 0.365 ± 0.027 | 0.167 ± 0.035 | 0.229 ± 0.0083
LSAVISLRIQLS | 0.449 ± 0.021 | 0.595 ± 0.093 | 0.603 ± 0.051 | 0.518 ± 0.032 | 0.546 ± 0.0071 | 0.3636 ± 0.0016 | 0.379 ± 0.04 | 0.4919 ± 0.0018
YVSIWSPILWLA | 0.117 ± 0.024 | 0.1694 ± 0.0014 | 0.262 ± 0.012 | 0.293 ± 0.028 | 0.453 ± 0.0083 | 0.0697 ± 0.007 | 0.0628 ± 0.017 | 0.0657 ± 0.016
RCQILSYCLLFV | 0.407 ± 0.012 | 0.4186 ± 0.0033 | 0.42 ± 0.017 | 0.34 ± 0.025 | 0.477 ± 0.016 | 0.381 ± 0.025 | 0.33 ± 0.024 | 0.4523 ± 0.0013
GSRRYYFTWVYQ | 0.1178 ± 0.00012 | 0.454 ± 0.038 | 0.697 ± 0.013 | 0.655 ± 0.019 | 0.722 ± 0.019 | 0.0716 ± 0.016 | 0.0885 ± 0.015 | 0.0876 ± 0.024
RVGYSIIIIGIE | 0.354 ± 0.0038 | 0.351 ± 0.026 | 0.433 ± 0.087 | 0.312 ± 0.042 | 0.48295 ± 0.00022 | 0.244 ± 0.0084 | 0.303 ± 0.019 | 0.457 ± 0.029
DIGCLWSKTRLC | 0.431 ± 0.12 | 0.669 ± 0.019 | 0.7585 ± 0.0073 | 0.652 ± 0.0094 | 0.763 ± 0.015 | 0.324 ± 0.022 | 0.359 ± 0.017 | 0.6042 ± 0.0039

Source: the supplement of paper PMC10724198
